System: MS2 coat protein
Assay: apparent KD of MS2 coat protein; designed switch direction (-1 OFF switch, 1 ON switch): -1; higher = weaker reporter binding
Method in brief: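 Three titration conditions were used: no input, 200 uM small-molecule ligand, and an oligonucleotide input. In each, SNAP-549-labelled MS2 coat protein was raised from 0.7 or 1.5 nM, doubling, to 3 µM over designed RNA switches transcribed on Illumina chips by stalled E. coli RNA polymerase. Curve fits of normalised cluster fluorescence gave values whose per-design median over clusters is the apparent KD.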

[1] = input ligand: microRNA oligo, concentration not stated
[2] = Eterna round: R95, input ligand: microRNA oligo, concentration not stated
[3] = Eterna round: R95, input ligand: FMN 200 uM
[4] = Eterna round: R95, input ligand: none

| Sequence | apparent KD of MS2 coat protein (input ligand: FMN 200 uM) [nM] | apparent KD of MS2 coat protein (input ligand: none) [nM] | also measured |
| --- | --- | --- | --- |
| UAUUAGCAAGCGAGGUCCCACAUGAGGAUCACCCAUGUGCUCGUCUUAUAAGGUACUGUGACGAUAGUCACGGUACC [Mat - Sensor, turn-off var - Eli Mod - D33] (Eterna round: R97, puzzle: Sensor, turn-off variant 1) | 14.6 | 14.6 |  |
| UAUUAGCAAGUAAGAUCCCACAUGAGGAUCACCCAUGUGCUCGUCUUAUAAGGUACUGUGACGAGAGUCACGGUACC [Mat - Sensor, turn-off var - Eli Mod - D45] (Eterna round: R97, puzzle: Sensor, turn-off variant 1) | 16.4 | 19.1 |  |
| UAUUAGCGAGGAUAUACAUGAGGAUCACCCAUGUGAUCCUAAGGCUGAUAAAGCCUAUGUAGAAGGCGCAAAAG [jl-ex3.4.51 ViennaUCT mod] (Eterna round: R97, puzzle: Exclusion 3) | 227 | 421 |  |
| UAUUAGUAAGGAUAUCCCACGUAGGACGAAAGUCCUACGUGGGAGAAGGUACAUGAGGAUCACCCAUGUCUAUU [Mod of Fisker 12 - Jieux - Exclusion 4] (Eterna round: R97, puzzle: Exclusion 4) | 20.4 | 18.7 |  |
| UAUUAGUAAGGAUAUGAGACGUAGGACUAAUGUCCUACGUCUCAGAAGGUACAUGAGGAUCACCCAUGUUUAUU [Mod of Fisker 8 - Jieux - Exclusion 4] (Eterna round: R97, puzzle: Exclusion 4) | 23.5 | 19.3 |  |
| UAUUAGUAAGGAUAUGAGUCGUAGAACGAAAGUACUACGUCUCAGAAGGUACAUGAGGAUCACCCAUGUUCAUU [Mod of Fisker 3 - Jieux - Exclusion 4] (Eterna round: R97, puzzle: Exclusion 4) | 21.8 | 13.5 |  |
| UAUUAUAAUGUAGGAUAUCUGCACGAUUAGUGCAGAGAAGGACAUGAGGAUCACCCAUGUAUAGUAGCUUCGGCUACAUUAUUU [ENG1-B1] (Eterna round: R96, puzzle: Exclusion NG 1) | 114 | 77.5 | apparent KD of MS2 coat protein [1]: 60.7 nM |
| UAUUAUGCAAGCAGGUCCCACAUGAGGAUCACCCAUGUGCUCGUCUUAUAAGGUACUGUGACGAAAGUCACGGUACC [Elimod 15 - Jieux - Sensor, turn-off variant 1] (Eterna round: R97, puzzle: Sensor, turn-off variant 1) | 37.6 | 37.9 |  |
| UAUUCGCGAGGAUAUGCAGUCGAGUCCAUUACGUGUCUGGGACUUGAGGAUCACCCAAGUAGAAGGCGUCUCAG [salish99_ex2_r4_641] (Eterna round: R97, puzzle: Exclusion 2) | 160 | 194 |  |
| UAUUCUAGAUAGGAUAUACUUUAUUUUUUUUUCGUAGAAGGAUCUACAUGAGGAUCACCCAUGUUAACAGCAGU [JR_E6_Sub009] (puzzle: Exclusion 6) |  |  | apparent KD of MS2 coat protein [2]: 50.5 nM |
| UAUUCUGCGCUCGUCUUAUACAUGAGGAUCACCCAUGUUCUCAAGGUCUUAUGUACUGACACGAAAGUGUUAGUAAU [AK-miRNA-r3-3] (Eterna round: R97, puzzle: Sensor, turn-off variant 1) | 36.3 | 41.6 |  |
| UAUUUAAGAGGAUAUACAUGAGGAUCACCCAUGUAAAAUAAAAUAGAUAAUUUUUUAUGUAGAAGGCUUGGGUA [-12.7, -11.42 kcal, A 39%] (Eterna round: R97, puzzle: Exclusion 3) | 38.5 | 40 |  |
| UAUUUGCAAGCGAGAUCCCACAUGAGGAUCACCCAUGUGCUCGUCUUAUAAGGUACUGUGACGAAAGUCACGGUACC [Sensor 3, v1 - 91 v26] (Eterna round: R97, puzzle: Sensor, turn-off variant 1) | 16.5 | 13.7 |  |
| UAUUUGUAAGGAUAUCUCGUCAUGGAGGAAACUCCAUGACGAGAGAAGGUACAUGAGGAUCACCCAUGUCUAUU [Mod of Fisker 23 - Jieux - Exclusion 4] (Eterna round: R97, puzzle: Exclusion 4) | 26.2 | 18.6 |  |
| UAUUUGUGAGGAUAUGAGUCGUAGAACAAUAGUACUACGUCUCAGAAGGCACAUGAGGAUCACCCAUGUACCUC [Fiskers Ex 4 Super Stable 44 mod 30] (puzzle: Exclusion 4) |  |  | apparent KD of MS2 coat protein [2]: 16.9 nM |
| UCAAGUAUGUAGGAUAUCGAUGUCGAAAGACAUCGAGAAGGACGUACAUGAGGAUCACCCAUGUAACUUGCAUG [Exclusion 6 - B - 10:f] (Eterna round: R96, puzzle: Exclusion 6) | 159 | 220 | apparent KD of MS2 coat protein [1]: 112 nM |
| UCAAGUAUGUAGGAUAUCGAUGUCGAAAGACAUCGAGAAGGACGUACAUGAGGAUCACCCAUGUAACUUGCAUG [Exclusion 6 - B - 10:f] (puzzle: Exclusion 6) |  |  | apparent KD of MS2 coat protein [3]: 32.2 nM; apparent KD of MS2 coat protein [2]: 44.6 nM; apparent KD of MS2 coat protein [4]: 42.3 nM |

| Sequence | apparent KD of MS2 coat protein (input ligand: FMN 200 uM) [nM] | apparent KD of MS2 coat protein (input ligand: none) [nM] | also measured |
| --- | --- | --- | --- |
| UCACGGGACUAAGGAUAUAUGUGUACCAUUUUCAUAGAAGGUAGAAUGUUUGAUCAUAAACUAAACAUGAGGAUCACCCAUGUU [JR_ExcNG1_Sub091] (Eterna round: R96, puzzle: Exclusion NG 1) |  |  | apparent KD of MS2 coat protein [1]: 20.6 nM |
| UCACGGGACUGAGGAUAUACAUUUAUUAUUUUUGUAGAAGGCAGAAUGUUAGUUUUUUCACUAUACAUGAGGAUCACCCAUGUU [JR_ExcNG1_Sub084] (Eterna round: R96, puzzle: Exclusion NG 1) |  |  | apparent KD of MS2 coat protein [1]: 20.6 nM |
| UCAGAGCGAGGAUAUGCUGGUGUUAUUCACAUUUGUCCGCGACAUGAGGAUCACCCAUGUAGAAGGCGUAGCCA [Eternabot (L2) Solution 44] (Eterna round: R97, puzzle: Exclusion 2) | 104 | 76.9 |  |
| UCAGUGCUGCGAGGAUAUACAUGAGGAUCACCCAUGUAAAUGUGUGAGGCUUUGCCUCACACAAUGUAGAAGGCGCAGUACUGU [Mat - Exclusion NG 2 - Mod of JL - D3] (Eterna round: R96, puzzle: Exclusion NG 2) | 17.2 | 14.3 | apparent KD of MS2 coat protein [1]: 11.1 nM |
| UCAUGAUGAUAGGAUAUCGCGCGGUGAAAUGCGCGAGAAGGAUUAACAUGAGGAUCACCCAUGUUGGUCUGUUA [Eternabot (L2) Solution 69] (Eterna round: R97, puzzle: Exclusion 6) | 27.9 | 15.3 |  |
| UCAUGGUAGCAGGAUAUGCUUGUAAUUUUUUAUGCAGAAGGGCUUACAUGAGGAUCACCCAUGUGUUAGGUCUA [JR_E6_Sub069] (puzzle: Exclusion 6) |  |  | apparent KD of MS2 coat protein [2]: 45.2 nM |
| UCAUGUCCAGAGGAUAUGUAGCGGGAGACCGCAACAGAAGGCUGGACAUGAGGAUCACCCAUGUGCGCCUUCCA [jl-ex3-4.26 ViennaUCT mod] (Eterna round: R97, puzzle: Exclusion 6) | 21.8 | 17 |  |
| UCAUGUUUAGAGGAUAUGAUUACUCUAGAGUGAUCAGAAGGCUAGACAUGAGGAUCACCCAUGUCAGAACAUGC [Exclusion 6 - B - 17:b] (puzzle: Exclusion 6) |  |  | apparent KD of MS2 coat protein [3]: 17.7 nM; apparent KD of MS2 coat protein [2]: 24.7 nM; apparent KD of MS2 coat protein [4]: 31.9 nM |
| UCAUGUUUAGAGGAUAUGAUUACUUUCGAGUAAUCAGAAGGCUAGACAUGAGGAUCACCCAUGUCAUAACAUGA [Exclusion 6 - B - 15:b] (puzzle: Exclusion 6) |  |  | apparent KD of MS2 coat protein [3]: 68.7 nM; apparent KD of MS2 coat protein [2]: 71.8 nM; apparent KD of MS2 coat protein [4]: 214 nM |
| UCAUUGGUAGGAUAUACAUGAGGAUCACCCAUGUGUCCGGAGCAGUAUGCUUGAAAACGUAGAAGGACCUAGGA [Eternabot (L1) Solution 15] (Eterna round: R97, puzzle: Exclusion 3) | 45.3 | 40.4 |  |
| UCCAAACAUGAGGAUCACCCAUGUGAGGAUAUGAUACUAUGUACUUCGGUACAUAGUAUCAGAAGGCACAUCCA [Ex1-3: 10] (puzzle: Exclusion 1) |  |  | apparent KD of MS2 coat protein [2]: 13.4 nM |
| UCCAACCCUGUGAGGAUAUCGUCCAUUUUUUGUUCCGAGAAGGCACAUGAGGAUCACCCAUGUUUUUUAUUUUU [JR_BMOE4_Sub078] (puzzle: Brourd's mod of Exclusion 4) |  |  | apparent KD of MS2 coat protein [2]: 34.9 nM |
| UCCCAGUGAGGAUAUACUUAUCGGGUCGGUUAGCGAGGAAAACUUGAGGAUCACCCAAGUAGAAGGCGCAACGU [Isinar] (Eterna round: R97, puzzle: Exclusion 2) | 35.1 | 29.6 |  |
| UCCGUACAUGAGGAUCACCCAUGUCAGGAUAUGCAGACCGGCCGCCAGCGACCGGCCCGCAGAAGGGACAUAGA [EX1 B.4] (Eterna round: R97, puzzle: Exclusion 1) | 140 | 30.7 |  |
| UCCGUACAUGAGGAUCACCCAUGUCAGGAUAUGGCUUUUAGCGUAGACGCGCAAGAGGCCAGAAGGGACUUUUG [Eternabot (L2) Solution 6] (Eterna round: R97, puzzle: Exclusion 1) | 30.5 | 27.7 |  |
| UCCUCACAUGAGGAUCACCCAUGUCAGGAUAUAAGAAACGCGGAAGGCAGCCGCAAAAUUAGAAGGGACAUUAA [EX1 A.25] (Eterna round: R97, puzzle: Exclusion 1) | 39.7 | 20.6 |  |
| UCCUCACAUGAGGAUCACCCAUGUCAGGAUAUACAAGAAAAUAACCGGAAAGACCGGAGUAGAAGGGACAUAAG [Beleonrala] (puzzle: Exclusion 1) |  |  | apparent KD of MS2 coat protein [3]: 31.6 nM; apparent KD of MS2 coat protein [2]: 16.1 nM; apparent KD of MS2 coat protein [4]: 16.1 nM |
